From patent US20150266963A1 (ARGEN X B V, published 2015)
Residue numbers refer to the chain shown, from its start.

B1: 24B6 chimeric llama-human mAb (antibody, human IgG1, V domains shown)
VH: EVQLQESGGGVVQPGGSLRLSCAASGFTFDDYAMSWVRQAPGKGLEWVSSIYMYDSSTYYADSVKGRFTISTDNAKNTVYLQMNSLKSEDTAVYYCAKDINRSYGSSWSHFGPIFSSWGQGTQVTVSS
VL: QPVLTQPSAVSVSLGQTARITCQGGYYTHWYQQKPGQAPVLVIYINNNRPSGIPERFSGSISGNTATLTISGAQVEDEADYYCQSGSSSTIPVFGGGTKLTVLG
B2: 53F1 Fab (Fab, V domains shown)
VH: EVQLVESGGGLVQPGGSLRLSCAASGFTFSVYYMNWVRQAPGKGLEWVSDINNEGGTTYYADSVKGRFTISRDNAKNTLTLQMNSLKPEDTAVYYCVRDAGYSNHVPIFDSWGQGTQVTVAS
VL: QAVVTQEPSFSVSPGGTVTLTCGLKSGSVTSDNFPTWYQQTPGQAPRLLIYNTNTRHSGVPDRFSGSILGNKAALTITGAQADDESDYFCALFISNPSVEFGGGTQLTVLG
notes: Germlined 27B3 Fab, periplasmic fraction
B3: 9B2 chimeric llama-human mAb (antibody, human IgG1, V domains shown)
VH: QLQVVESGGGLMQPGGSLRLSCAASGFTFSGSAMSWVRQAPGKGLEWVSSIYSHSMYTYYADSVKSRFTISTDNAKNTLYLQMNSLKPDDTAVYYCAASSDYEGLFVSWGQGTQVTVSS
VL: QAVLTQPPSLSASPGSSVRLTCTLNSANSVGSYDISWYQQKAGSPPRYLLYYYSDSLSHQGSGVPSRFSGSTDASANAGLLLISGLQPEDEADYYCSAYNRGSHVFGGGTKLTVLG
B4: 5B2 chimeric llama-human mAb (antibody, human IgG1, V domains shown)
VH: QVQLVESGGDLVQPGGSLRLSCAASGFTVSNPAMSWVRQAPGKGLEWVSEITNYGYNRYYADSVKGRFTISTDNAKNTLYLQMNSLRSEDSAVYYCTASLGLEYGYGDWGQGTQVTVSS
VL: QSALTQPPSVSGTLGKTLTISCAGTSSDVGYGNYVSWYQQLPGTAPKLLIYRVSTRASGMPDRFSGSKSGNTASLTISGLQSEDEADYYCASYTTNNKPVFGGGTHLTVLG
B5: 5B2 (Fab, V domains shown)
VH: B4 VH
VL: B4 VL
notes: also called 5B2 Fab
B6: 53G1 Fab (Fab, V domains shown)
VH: B2 VH with T80Y, Q117T, T119I, A121S
VL: B2 VL with A2T, K25T, D32T, T55S, D62S
notes: as for B2
B7: 39D5 Fab (Fab, V domains shown)
VH: B2 VH with V31G, T80Y, K87R, P88A, Q117T
VL: B2 VL with A2T, F10L, S11T, L24V, K25T, A82P, D83E, F89Y
notes: as for B2

Experiments:
[1] = biological target: T1, recombinant human CD70 (Flag-TNC-CD70) (human, UniProt P32970 39-193); assay: inhibition ELISA; Flag-TNC-CD70 captured by anti-Flag mAb; competitor CD27-Fc
T1 construct: extracellular domain; Captured by anti-Flag mAb in ELISA; as 'recombinant human CD70' immobilised on Biacore CM5 chips; TNC is for trimerisation; also called recombinant CD70; human recombinant CD70; not shown: Flag tag and TNC trimerisation domain
T1 sequence (looked up): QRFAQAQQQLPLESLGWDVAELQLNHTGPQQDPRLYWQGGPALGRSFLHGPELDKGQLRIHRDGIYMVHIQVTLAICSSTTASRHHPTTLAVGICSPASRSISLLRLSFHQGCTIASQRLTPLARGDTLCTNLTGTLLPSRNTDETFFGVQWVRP
Procedure: (§1) From selected phage transfected into TG1, individual colonies were picked randomly for growth in 96 well plates. After IPTG induction according to standard protocols periplasmic fractions (penis) containing Fabs were prepared. […] In this assay, Flag-TNC-CD70 is captured by an anti-Flag mAb and binding of CD27-Fc is detected via a biotinylated anti-CD27 mAb and strep-HRP in the absence or presence of CD70 Fabs (FIGS. 2 and 3) or CD70 mAbs (FIG. 4). In FIG. 2B it can be seen that 27B3, which has an identical VH as 9D1, but contains a somewhat different light chain, seems to block binding of CD27 to CD70 more efficiently, which was in line with the better off rate of this Fab as measured on Biacore (data not shown). Table 3 indicates the blocking potency (expressed as IC50) for the various llama-human chimeric mAbs tested in the CD70 inhibition ELISA. […] FIG. 3 is a composite of an experiment testing llama CD70 Fabs for blocking activity (in the inhibition ELISA, see white bars) and for CD70 binding (binding ELISA, black bars). For the binding ELISA, Flag-TNC-CD70 is captured by an anti-Flag mAb and binding of the Fabs is detected using an anti-myc-HRP mAb, which recognizes the MYC tag fused to the C-terminus of the Fd fragment. For comparison purposes, known monoclonal antibodies to CD70 (SGN70 described in US 2010/0129362 A1, clone 1F6; and MDX69A7 described in WO2008/074004 FIGS. 5A and 5B) were tested in parallel. […] Of interest is clone 59D10, which as Fab has no blocking activity, but when converted into a chimeric IgG was antagonistic (see Table 3). Amino acid sequences of the VH and VL domains of binding and blocking llama-derived Fab clones are shown elsewhere herein (Tables 6-9).

[2] = biological target: T1, recombinant human CD70 (Flag-TNC-CD70); assay: Biacore; CD70 coated CM5 chip; Fab in periplasmic fraction
Procedure: Phage eluted from rounds 3, 4 and 5 of selection were transfected into TG1 and plated clonally; individual clones were picked randomly for further analysis. Periplasmic fractions containing Fabs were prepared from IPTG induced small scale cultures the off rate of each Fab was determined using a CD70 coated CM5 chip in a Biacore binding assay. Clones with Fab having off rates similar to that of 27B3 were sequenced.

[3] = biological target: T2, human CD70 expressed on the surface of cells (human, UniProt P32970 1-193); assay: cell-based or functional assay
T2 sequence (looked up): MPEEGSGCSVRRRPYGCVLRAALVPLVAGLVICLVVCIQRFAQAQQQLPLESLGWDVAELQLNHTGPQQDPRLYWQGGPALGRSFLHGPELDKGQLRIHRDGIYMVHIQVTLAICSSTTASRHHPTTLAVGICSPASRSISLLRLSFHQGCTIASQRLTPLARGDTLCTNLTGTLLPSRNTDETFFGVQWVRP

[4] = biological target: T1, recombinant human CD70 (Flag-TNC-CD70); assay: inhibition ELISA: Flag-TNC-CD70 captured by anti-Flag mAb, Fab titrated, remaining binding of CD27-Fc detected
Procedure: as §1

| Binder | IC50 [1] [µg/mL] | koff [2] [s⁻¹] | other results |
| --- | --- | --- | --- |
| B1 | 0.42 | – | – |
| B2 | – | 0.00023 | – |
| B3 | 0.126 | – | IC50 (ng/ml), IL-8 secretion in Raji / HT1080-CD27 co-culture assay [3]: 213 ng/mL |
| B4 | 0.092 | – | IC50 (ng/ml), IL-8 secretion in Raji / HT1080-CD27 co-culture assay [3]: 19 ng/mL |
| B5 | – | – | IC50 (read off the curve) [4]: ~2 nM |
| B6 | – | 0.0002 | – |
| B7 | – | 0.00012 | – |
